{
  "source": "the nanobody polyreactivity screen of Harvey et al. (2022)",
  "data": [
    {"assay": "yeast display, Sf9 membrane polyspecificity reagent, FACS + sequencing; frameworks hold sequencing errors", "in_short": "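Nanobodies from a synthetic yeast display library (Saccharomyces cerevisiae BJ5465), induced 36–48 hours with galactose, were stained 1 hour at 4 °C with 10% biotinylated, detergent-solubilized Sf9 membrane reagent, enriched on streptavidin microbeads, then FACS-sorted. Anti-HA (expression) and streptavidin (reagent binding) fluorescence set low and high (top ~1%) gates. Polyreactivity labels come from the gate of origin. Genes were colony-PCR amplified, MiSeq 2 × 250 sequenced and filtered by CDR length.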", "values": [
      {"sequence": "QVQLVESGRGLVQAGGSLRVSCAASGSILSINGMGWYRQAPGKERELVATIDGSDGSTFYADSVKGRFTISRDNAKNTVYLQMNSLKPEDTAVYYCAAENFWQTKEYDYWGQGTQVTVSS", "polyreactivity (PSR sort gate)": "low polyreactivity"},
      {"sequence": "QVQLVESGGGLVQAGGSLRLSCAASGITFFGKYAMGWYRQAPGKERELVAAISWSGGRTYYADSVKGRFTISRDNAKNTVYLQMNSLKPEDTAVYYCAVYPRDAERYGYWGQGTQVTVSS", "polyreactivity (PSR sort gate)": "high polyreactivity"},
      {"sequence": "QVQLVESGGGLVQAGGSLRLSCAASGRTFCRYAMGWYRQAPGKERELVAAIRSGASTYYADSVKGRFTISPDNGKNTVYLQMKSLIPEDTAVYYCAADIARHLTGFAYYRLDYWGQGTQVTVSS", "polyreactivity (PSR sort gate)": "low polyreactivity"},
      {"sequence": "QVKLVESGGGLVQAGGSLRLSCAASGSTFGINARGWYRQAPGKERELVAAITFISGSTNYADSVKGRFTISRDNAKNTVYLQMNSLKPEDTAVYYCAARCTSTPVYSRYGYWGQGTQVTVSS", "polyreactivity (PSR sort gate)": "low polyreactivity"},
      {"sequence": "QVQLVESGGGLVQAGGSLRLSCAASGNTFRDYAMGWYRQAPGKERELVAAITSAGARTYYADSVKGRFTISRDNAKNTVYLQMNSLKPEDTAVYYCAADWSGYYTYDYWGQGTQVTVSS", "polyreactivity (PSR sort gate)": "low polyreactivity"},
      {"sequence": "QVQLVESGGGLVQEGGSLRLICAASGFIFRYYAMGWYRQAPGKERELVAAISRSGGSTSYADSVKGRFTISRDNAKITGDFQMNSLKPEDSAVYYCAKYVAFHYKQYDFNWGQGTQVYVSS", "polyreactivity (PSR sort gate)": "high polyreactivity"},
      {"sequence": "QVQLVESGGGLVQAGGSLRLSCAASGFIFYRYTMGWSRQAPGKERELVAGSSSRGTRTYYADSVKGRFTISRDNAKNTVYLQMNSLKPEDTAVYYCAKVDGSKRYNYWGQGTQVTVSS", "polyreactivity (PSR sort gate)": "high polyreactivity"},
      {"sequence": "QVQLVESGGGLVQAGGSLRLSCAASGRILPRNAMGWYRQAPGKERELVAGISSEGSTNYADSVKGRFTISRDNAKYTVYLQMNSLKPEDSAVYYCAADGVYDPNLYGYWGQGTQVNVSS", "polyreactivity (PSR sort gate)": "low polyreactivity"},
      {"sequence": "QVQLVESGGGLFQAGGSLRLSCAASGYIFGSYVMGWYIQAPGKERELVAAISRRGGSTYYADSVKGRFTISRDNAKNTVYLQMNSLNPEDTAVYYCAADDGQYAKYDYWGQGTQVTVSS", "polyreactivity (PSR sort gate)": "high polyreactivity"},
      {"sequence": "QVQLVESGGGLVQAGGSLRLSCAASGRIFDSYAMGSYRQAPGKERELVAVISNNDGTTYYADSVKGRFTISRDNEKNTVYLQMNSLKPEDTAVYYCAAEEPLFGYLWYVVTYAGIYDYWGQGSQVTVSS", "polyreactivity (PSR sort gate)": "low polyreactivity"},
      {"sequence": "QVQLQESGGGLVQAGGSLRQSYAASGYIFPSLAMGWYRQAPGKEREFVAAIGRGSTNNYADSVKGRFTISRDNAKNTAYQQMNSLNPEDTAVYYCAAAASPLTRHLYWGQGTQVTVSS", "polyreactivity (PSR sort gate)": "low polyreactivity"},
      {"sequence": "QVQLVESGGGLGQAGGSLRLSCAASGSIFDINAMGWYRQAPGKERELVAANRENGGDTYYPDSVKGRFTISRDNAKHTVYLQMNSLKPEDTAVYYCAAYSGDQAYQGDYWGQGTQVTVSS", "polyreactivity (PSR sort gate)": "low polyreactivity"},
      {"sequence": "QVQLVESGGGLVQAGGSLRLSCAASGIIVPNAMGWYRPAPGKERELVAAMSRSGGSTNYADSVKGRFTISRDNAKNTVYLQMNSLKPEDTAVYYCATKYNADTRYDYWGQGTQVTVSS", "polyreactivity (PSR sort gate)": "low polyreactivity"},
      {"sequence": "QVQLVESGGGLVLAGGILRLSCAASGSTFKRYAMGWYRQAPGKVRELVAAITWRGGSTYYADSVKGRFTISRDNAKNTVYLQMNSLKPEDTAVYYCAARANYFGWPKSYYYWGQGTQVTVSS", "polyreactivity (PSR sort gate)": "high polyreactivity"},
      {"sequence": "QVQLVESGGGLVQAGGSLRLSCAASGRTFYRNTMGWYRQAPGKERELVAAITSSGGSTYYADSVKGRFTISRDNAKNTVYLQMNSLKPEDTAVYYCAAPTWQKVVNPGGYYWGQGTQVTVSS", "polyreactivity (PSR sort gate)": "high polyreactivity"},
      {"sequence": "QVQLVESGGGLVQAGGSLRLSCAASGFIFYYYAMGWYSQAPGKERELVARISRGGSTYYADSVKGRFTISRDNAKNTVYLQMNSLKPEDTAVYYCAKVSIARIKTRYNYWGQGTQVTVSS", "polyreactivity (PSR sort gate)": "high polyreactivity"},
      {"sequence": "QVKLVDSGVGLVQAGVSLRLSCAASGSIFGTYAMGWYRQAPGKERELVAAISYRGTSTYYADSVKGRFTISRDNAKNTVYLQMNSLKPEDTAVYYCAARHGYTYRSGYYYWGQGTQVTVSS", "polyreactivity (PSR sort gate)": "high polyreactivity"},
      {"sequence": "QVQLVESGGGLVQAGGSLRLSCAASGLTFRWYAMGWYRRAPGKERELVAAISSGGSTNYADSVKGRFTISRDNAKNTVYLQMNSLKPEDTAVYYCNAKGRPWFKYDYWGQGTQVTVSS", "polyreactivity (PSR sort gate)": "high polyreactivity"},
      {"sequence": "QVQLVESGGGLVQAGGSLRLSCAASGSIFTRYTMGWYSQAPGKERELVAVISDSSGRTYYADSVKGRFTISRDNAKNTVYLQMNSLKPEDTAVYYCAAEYSDIYEYWGQGTQVTVSS", "polyreactivity (PSR sort gate)": "low polyreactivity"},
      {"sequence": "QVQLVESGGGLVQAGASLRLSCAASGSTFPYYAMGWYRQAPGKERELVAAISGSGGTTYYADSVKGRFTISRDNAKNTVYLQMNSLKPEDTEVYYCAVDIGVGYGYYYWGQGTQVTVSS", "polyreactivity (PSR sort gate)": "low polyreactivity"},
      {"sequence": "QVQLVESGGGLVQAGGSLRLSCAASGSILAGNTMVSYRQAPGKERELVATISKRGGSTYYADSVKGRFTISRDNAKNTVYLQMNSLKPEDTAVYYCAAALRAKHYYWGQGTQVTVSS", "polyreactivity (PSR sort gate)": "high polyreactivity"},
      {"sequence": "QVQLVESVGGLVQAGGSLRLSCAASGRTLFTNGMGWYRQAPGKESELVAAISTSGGSTHYADSVKGRFTISRDNAKNTVYLQMNSLKPEDTAVYYCAVDVLTVGQSYDHWGQGTQVTVSS", "polyreactivity (PSR sort gate)": "high polyreactivity"},
      {"sequence": "QVHLVDSGGGLVQARGSLRLSCAASGFTIGPYAMGWYRQAPGKERELVAAITIRGGSTYADSVKGRFTISRDNAKNTVYLQMNSLKPEDTAVYYCATVRALEYNYWGQGTQVTVSS", "polyreactivity (PSR sort gate)": "low polyreactivity"},
      {"sequence": "QVQLVQSGGGLVQAGGSLRISCAPSGLTCNGNAMGWYRQAPGKEREMVAAISSSGGTTYYADSVKGRFTISRDNAKNTVYLEMNSLKPEDTAVSYCAARPSGGYESTRTRDYWGQGTQVNVSS", "polyreactivity (PSR sort gate)": "low polyreactivity"},
      {"sequence": "QVQLVESGGGLVQGGGSLSLSCAASGITFLNYAMGWYRQAPGKERELVAAITWRGGRTYYADSVKGRFTISRDNEKNTVYLQMNSLKPEDTAVYYCARRPGYALTWRVSGRYDYWGQGTQVTVSS", "polyreactivity (PSR sort gate)": "high polyreactivity"},
      {"sequence": "QVQLVESGGGLVQAGGSLRLSCAASGRIIGIKAMGWYRLAPGKEMELVATITSGGDTNYADSVKGRFTISRDNAKNTVYIQMNSLKPEDTAVYYCNAESYGLGIGYEYWGQGTQVTVSS", "polyreactivity (PSR sort gate)": "low polyreactivity"},
      {"sequence": "QVQLVESGGGLVQAGGSLRLSCAASGSIFLDNAMGWYRQAPGKERELVAAISWSAGSTYYADSVKGRFTISRDNAKNTVYLQMNSLKPEDTAVYYCAAESYPGWYWDDYWGQGTQVTVSS", "polyreactivity (PSR sort gate)": "high polyreactivity"},
      {"sequence": "QVQLVESGGGLVQAGGSLRLSCAASGRILVKNTMGWYRQAPGKERELVAAITSAGNTYYADSVKGRFTITRDNAKNSVYFQMNSLTPEATAVYYCAARNRTFFQPTYYYWGQGTQVTVSS", "polyreactivity (PSR sort gate)": "high polyreactivity"},
      {"sequence": "QVQLVESGGGLVQAGGSLRLSCAASGSTFYYYAMGWYRQAPGKERELVATISSGSSTNYADSVKGRFTISRDNAKNTVYLQMNSLIPEDTAVYYCAADRWYINLYIDATISYDYWGQGTQVTVSS", "polyreactivity (PSR sort gate)": "low polyreactivity"},
      {"sequence": "QVQLVESGGGLVQAVGSLRLSCAASGLIFDANAMGWYRQAPGKERELVAAISNGDSTYYADSVKGRLTISRDNAKNTVYLQMNSLKPEDTAVYYCNARIIYRKWLFRSGTFNYWGQGTQVTVSS", "polyreactivity (PSR sort gate)": "low polyreactivity"}
    ]}
  ]
}
